What was measured:
[1] = biological target: [11PROXYL-(POG)3PCG(POG)4]3; assay: 1H-15N HSQC NMR titration
[(POG)3PCG(POG)4]3 = 1H-15N HSQC NMR titration

B1: collagen-binding domain (CBD), s3b (Gly893-Lys1008) peptide derived from Clostridium histolyticum cl (other)
chain: GNEKLKEKENNDSSDKATVIPNFNTTMQGSLLGDDSRDYYSFEVKEEGEVNIELDKKDEFGVTWTLHPESNINDRITYGQVDGNKVSNKVKLRPGKYYLLVYKYSGSGNYELRVNK
notes: range 893-1008
B1: binds [1]; binds ([(POG)3PCG(POG)4]3).

— patent publication US20140377215A1 (BOARD OF TRUSTEES OF THE UNIVERSITY OF ARKANSAS, published 2014)
